In the assay the target is PHF-tau (paired helical filament tau; sarcosyl insoluble prep from human AD brain) (human) (UniProt P10636). The experiment in a line: SPR (ProteOn), mAb on PHF-tau, bivalent analyte fit; apparent affinity (avidity).
Sequence of PHF-tau (paired helical filament tau; sarcosyl insoluble prep from human AD brain) (human) (P10636 other isoform, or with tags, fused parts or gaps limits assumed): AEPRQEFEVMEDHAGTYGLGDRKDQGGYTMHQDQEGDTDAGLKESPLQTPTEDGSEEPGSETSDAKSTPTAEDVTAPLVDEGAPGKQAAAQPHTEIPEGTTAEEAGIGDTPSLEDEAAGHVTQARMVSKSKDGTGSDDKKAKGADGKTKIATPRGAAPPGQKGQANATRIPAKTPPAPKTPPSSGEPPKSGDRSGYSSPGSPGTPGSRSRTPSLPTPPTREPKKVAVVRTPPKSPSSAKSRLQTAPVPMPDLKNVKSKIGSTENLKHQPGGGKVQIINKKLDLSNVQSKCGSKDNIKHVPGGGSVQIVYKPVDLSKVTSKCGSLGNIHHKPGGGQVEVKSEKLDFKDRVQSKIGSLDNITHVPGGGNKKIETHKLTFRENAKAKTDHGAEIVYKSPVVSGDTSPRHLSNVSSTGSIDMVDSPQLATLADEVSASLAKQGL

Consider HT7 (reference mAb) (antibody), for which the Kd was determined as 0.291 nM.

For the origin of these results see patent US20240150451A1.
